The text below walks through data of patent publication US20160017018A1 (GENERAL HOSPITAL, published 2016).

The target in the assay is T1, human CD80 (human, UniProt P33681 35-288).
T1 construct: whole, on cells; also called human CD80-expressing acute myelogenous leukemia cell line (Cat#CRL-2740, ATCC)
T1 sequence (looked up): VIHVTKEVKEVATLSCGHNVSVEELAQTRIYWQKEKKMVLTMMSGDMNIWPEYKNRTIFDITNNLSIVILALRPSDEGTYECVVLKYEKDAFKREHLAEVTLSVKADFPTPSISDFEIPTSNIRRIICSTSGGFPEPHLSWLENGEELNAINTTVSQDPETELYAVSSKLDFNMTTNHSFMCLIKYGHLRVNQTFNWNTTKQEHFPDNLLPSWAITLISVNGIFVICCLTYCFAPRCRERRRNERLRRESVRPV
Kind of assay: flow cytometry on human CD80-expressing AML cells; grade = binding percentage of the wild-type, ++++ (100%).

From the text: FIGS. 1A-C. […] PE-SA only; biotinylated protein control [porcine CD3εγ ectodomain single-chain fusion protein (pCD3εγ)] […] B) Bar graph presentation of the mean fluorescence intensity (MFI) from flow cytometry binding analysis data as described in A). Different concentrations of biotinylated pCD3εγ were used as non-specific fluorescence control. Error bars are included based on the calculated standard deviation. […] The concentration of the competitor is indicated. All figures of 1A-C are representatives of multiple individual experiments.

B1: Non-N-Glycosylated soluble human CTLA-4-6×His (receptor)
chain: KAMHVAQPAVVLASSRGIASFVCEYASPGKATEVRVTVLRQADSQVTEVCAATYMMGNELTFLDDSICTGTSSGNQVALTIQGLRAMDTGLYICKVELMYPPPYYLGIGAGTQIYVIDPEPCPDSDHHHHHH
modifications: biotinylated for the direct binding stain (sites not given); unlabeled in the blocking assay
notes: Expressed in Pichia pastoris; also called wild-type soluble human CTLA-4; human CTLA-4 wild-type
For B1, the binding result was “binds”.
